Experimental data from US8173131B2, “Compositions and methods for modulating RSV infection and immunity” (PerkinElmer Health Sciences, Inc., priority 2000, dated 2012).

B1: G glycoprotein: purified G glycoprotein isolated from RSV/A2-infected Vero cells (protein)
chain: MSKNKDQRTAKTLERTWDTLNHLLFISSCLYKLNLKSVAQITLSILAMIISTSLIIAAIIFIASANHKVTPTTAIIQDATSQIKNTTPTYLTQNPQLGISPSNPSEITSQITTILASTTPGVKSTLQSTTVKTKNTTTTQTQPSKPTTKQRQNKPPSKPNNDFHFEVFNFVPCSICSNNPTCWAICKRIPNKKPGKKTTTKPTKKPTLKTTKKDPKPQTTKSKEVPTTKPTEEPTINTTKTNIITTLLTSNTTGNPELTSQMETFHSTSSEGNPSPSQVSTTSEYPSQPSSPPNTPRQ

Tested on: 293 cells
Test: G glycoprotein and Fkn binding to untransfected 293 control cells by flow cytometry
Set-up: species or system human
Details: for percent positive staining of 293 cells: 10 nM ligand, representative experiment, FIG. 1
Procedure: Purified G glycoprotein was examined for binding to 293-CX3CR1 cells^33. A pcDNA 3.1 plasmid containing the CX3CR1 gene and a neomycin resistance gene was used to stably transfect human embryonic kidney (HEK) cells. Neomycin resistance was used for selection and maintenance of plasmid transfection of human embryonic kidney cells.
All binding studies were done on ice and either G glycoprotein or human Fkn (R&D Diagnostics, Minneapolis, Minn.) were diluted between 1 nM-100 nM in PBS (GIBCO) containing 1% bovine serum albumin (Sigma) and incubated with the 293-CX3CR1 cells or 293 control cells for 30 min at 4° C. […] For inhibition studies, 100 pM-1 μM human Fkn or G glycoprotein was preincubated with the cells for 30 min at 4° C. Without washing, 100 pM of either Fkn or G glycoprotein was added and incubated for 30 min at 4° C. The cells were washed, blocked with FcγRIII blocking antibody (HB197) for 30 min on ice, washed and stained as appropriate with either an anti-G glycoprotein monoclonal antibody cocktail (132-5B, 132-5G, 130-2G, 232-IF) or a biotinylated anti-G glycoprotein monoclonal antibody cocktail (130-2G, 131-2G) or anti-Fkn monoclonal antibody (51637.11; R&D Diagnostics). Concentrations of 1 μg of anti-G glycoprotein monoclonal antibody (131-2G)^34, rabbit anti-CX3CR1 sera^33, and anti-CX3CR1 monoclonal antibody containing 10 μg/ml heparin were used in all experiments. […] Staining was detected with absorbed FITC-goat anti-mouse (H & L chain) monoclonal antibody (PharMingen, San Diego, Calif.) or streptavidin-PE (PharMingen) using flow cytometry (FACScan, Becton-Dickinson, Mountain View, Calif.). A 76 amino acid ^125I-Fkn polypeptide comprising the […] (NEN, Boston, Mass.) was used in radioligand studies^33. As a control, the void volume following purified G glycoprotein passaged over an anti-G glycoprotein antibody (130-2G) affinity column was examined by flow cytometry for binding to either 293 or 293-CX3CR1 cells.
The receptor for Fkn, CX3CR1, was previously identified and characterized using anti-CX3CR1 rabbit antiserum and CX3CR1-transfected human embryonic kidney cells (293-CX3CR1 cells)^33.

Molecule	percent positive staining of 293 cells	binding to 293 cells (wheat germ lectin column fraction (G, F glycoprotein) or purified recombinant polyhistidine-tagged G glycoprotein)
Fkn: CX3C chemokine fractalkine (R&D), ligand of CX3CR1 [reference compound]	8%	–
B1	16%	18%
